Laboratory results from paper PMC10805794.

Assays:
[1] = biological target: Beta spike antigen (Sanofi SARS-CoV-2 recombinant prefusion spike trimer, B.1.351 variant) (SARS-CoV-2 (B.1.351, Beta) | bacteriophage T4) (UniProt P0DTC2); test: SEC; Superose-6 column, analytical HPLC; antigens at 3 mg/mL stored at 4 °C for several weeks (cold stored) and an aliquot incubated at 37 °C for one day
[2] = biological target: ancestral spike antigen (Sanofi SARS-CoV-2 recombinant prefusion spike trimer, Wuhan Hu-1) (SARS-CoV-2 (Wuhan Hu-1) | bacteriophage T4) (UniProt P0DTC2); test: as above

With “Beta spike antigen (Sanofi SARS-CoV-2 recombinant prefusion spike trimer, B.1.351 variant) (from UniProt P0DTC2 14-1213) (complex)” as the substance, how does the stoichiometry N [1] read?
The stoichiometry N was 3.

With “ancestral spike antigen (Sanofi SARS-CoV-2 recombinant prefusion spike trimer, Wuhan Hu-1) (from UniProt P0DTC2 14-1213) (complex)” as the substance, how does the stoichiometry N [2] read?
The stoichiometry N was 3.
